Consider one molecule from US20140079716A1 (Biogen, published 2014).

Assay [1] deals with T1, Soluble Flag-tagged LTα1β2 (UniProt P01374 35-205, limits assumed).
T1 construct: Biacore ligand captured on the anti-Flag antibody M2; the whole LTβ entry is named here; also called Ligand
T1 sequence 1: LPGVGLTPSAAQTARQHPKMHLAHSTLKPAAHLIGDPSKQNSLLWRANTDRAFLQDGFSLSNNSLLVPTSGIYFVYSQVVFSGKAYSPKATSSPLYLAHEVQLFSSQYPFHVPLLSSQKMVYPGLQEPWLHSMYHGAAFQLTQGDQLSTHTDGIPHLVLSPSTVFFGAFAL
T1 sequence 2: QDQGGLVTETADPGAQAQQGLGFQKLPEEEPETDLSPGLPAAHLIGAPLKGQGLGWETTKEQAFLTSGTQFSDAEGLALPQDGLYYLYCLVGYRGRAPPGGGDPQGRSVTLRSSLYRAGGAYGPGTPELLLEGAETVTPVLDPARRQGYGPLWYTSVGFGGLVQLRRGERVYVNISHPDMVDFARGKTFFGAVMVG
Briefly: SPR (Biacore 3000), Flag-LTα1β2 captured on anti-Flag M2; LTβR binding site 1. (In SPR one partner is held on a chip, and binding of the other changes the refractive index at the surface.)

The target in assay [2] is T1, Soluble Flag-tagged LTα1β2. Briefly: SPR (Biacore 3000), Flag-LTα1β2 captured on anti-Flag M2; LTβR binding site 2.

B1: monomeric LTβR (receptor, UniProt P36941 31-227, looked up)
chain: QAVPPYASENQTCRDQEKEYYEPQHRICCSRCPPGTYVSAKCSRIRDTVCATCAENSYNEHWNYLTICQLCRPCDPVMGLEEIAPCTSKRKTQCRCQPGMFCAAWALECTHCELLSDCPPGTEAELKDEVGKGNNHCVPCKAGHFQNTSSPSARCQPHTRCENQGLVEAAPGTAQSDTTCKNPLEPLPPEMSGTMLM
notes: Injected at 20 µM in the Biacore assay; also called LTbR
Broadly, the Kd is a measure of binding affinity in units of concentration. Lower therefore signals a tighter complex. In the case of B1, the Kd in assay [1] was about 50 nM; in assay [2], about 1500 nM.
